Reference: patent publication US11499162B2, “Plants having increased tolerance to herbicides” (BASF SE, priority 2016, dated 2022)

Format: biochemical
Conditions: pH 7.2
Procedure, shortened: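 E. coli resting cells expressing His-tagged TriA incubated with azines, melamine or atrazine. Enzyme in 25 mM sodium phosphate pH 7.2 at 30 °C, substrate 1–10 nM. Loss of parent and formation of OH-metabolite followed by UPLC-HR-MS; % degradation relative to empty-vector cells.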

| Molecule | Degradation in % of 6-cyclopentyl-N4-(2,3,4,5,6-pentafluorophenyl)-1,3,5-triazine-2,4-diamine | Degradation in % of Melamine |
| --- | --- | --- |
| Q71NL92AD328G: mutated TriA variant of SEQ ID NO: 2 (protein, Pseudomonas) MQTLSIQHGTLVTMDQYRRVLGDSWVHVQDGRIVALGVHAESVPPPADRVIDARGKVVLPGFINAHTHVNNILLRGGPSHGRQLYDWLFNVAYPGQKAMRPEDVAVAVRLYCAEAVRSGITTINDNADSAIYPGNIEAAMAVYGEVGVRVVYARMFFDRMDGRIQGYVDALKARSPQVELCSIMEETAVAKDRITALSDQYHGTAGGRISVWPAPAITPAVTVEGMRWAQAFARDRAVMWTLHMAESDHDERLHWMSPAEYMECYGLLDERLQVAHCVYFDRKDVRLLHRHNVKVASQVVSNAYLGSGVAPVPEMVERGMAVGIGTDGGNCNDSVNMIGDMKFMAHIHRAVHRDADVLTPEKILEMATIDGARSLGMDHEIGSIETGKRADLILLDLRHPQTTPHHHLAATIVFQAYGNEVDTVLIDGNVVMENRRLSFLPPERELAFLEEAQSRATAILQRANMVANPAWRSL | 6% | 0% |
| Y93A: mutated TriA variant of SEQ ID NO: 2 (protein, Pseudomonas) MQTLSIQHGTLVTMDQYRRVLGDSWVHVQDGRIVALGVHAESVPPPADRVIDARGKVVLPGFINAHTHVNQILLRGGPSHGRQLYDWLFNVLAPGQKAMRPEDVAVAVRLYCAEAVRSGITTINDNADSAIYPGNIEAAMAVYGEVGVRVVYARMFFDRMDGRIQGYVDALKARSPQVELCSIMEETAVAKDRITALSDQYHGTAGGRISVWPAPAITPAVTVEGMRWAQAFARDRAVMWTLHMAESDHDERLHWMSPAEYMECYGLLDERLQVAHCVYFDRKDVRLLHRHNVKVASQVVSNAYLGSGVAPVPEMVERGMAVGIGTDDGNCNDSVNMIGDMKFMAHIHRAVHRDADVLTPEKILEMATIDGARSLGMDHEIGSIETGKRADLILLDLRHPQTTPHHHLAATIVFQAYGNEVDTVLIDGNVVMENRRLSFLPPERELAFLEEAQSRATAILQRANMVANPAWRSL | 66% | 100% |
| Q71C: mutated TriA variant of SEQ ID NO: 2 (protein, Pseudomonas) MQTLSIQHGTLVTMDQYRRVLGDSWVHVQDGRIVALGVHAESVPPPADRVIDARGKVVLPGFINAHTHVNCILLRGGPSHGRQLYDWLFNVLYPGQKAMRPEDVAVAVRLYCAEAVRSGITTINDNADSAIYPGNIEAAMAVYGEVGVRVVYARMFFDRMDGRIQGYVDALKARSPQVELCSIMEETAVAKDRITALSDQYHGTAGGRISVWPAPAITPAVTVEGMRWAQAFARDRAVMWTLHMAESDHDERLHWMSPAEYMECYGLLDERLQVAHCVYFDRKDVRLLHRHNVKVASQVVSNAYLGSGVAPVPEMVERGMAVGIGTDDGNCNDSVNMIGDMKFMAHIHRAVHRDADVLTPEKILEMATIDGARSLGMDHEIGSIETGKRADLILLDLRHPQTTPHHHLAATIVFQAYGNEVDTVLIDGNVVMENRRLSFLPPERELAFLEEAQSRATAILQRANMVANPAWRSL | 0% | 5% |
| Y93V: mutated TriA variant of SEQ ID NO: 2 (protein, Pseudomonas) MQTLSIQHGTLVTMDQYRRVLGDSWVHVQDGRIVALGVHAESVPPPADRVIDARGKVVLPGFINAHTHVNQILLRGGPSHGRQLYDWLFNVLVPGQKAMRPEDVAVAVRLYCAEAVRSGITTINDNADSAIYPGNIEAAMAVYGEVGVRVVYARMFFDRMDGRIQGYVDALKARSPQVELCSIMEETAVAKDRITALSDQYHGTAGGRISVWPAPAITPAVTVEGMRWAQAFARDRAVMWTLHMAESDHDERLHWMSPAEYMECYGLLDERLQVAHCVYFDRKDVRLLHRHNVKVASQVVSNAYLGSGVAPVPEMVERGMAVGIGTDDGNCNDSVNMIGDMKFMAHIHRAVHRDADVLTPEKILEMATIDGARSLGMDHEIGSIETGKRADLILLDLRHPQTTPHHHLAATIVFQAYGNEVDTVLIDGNVVMENRRLSFLPPERELAFLEEAQSRATAILQRANMVANPAWRSL | 98% | 100% |
| L92AY93F: mutated TriA variant of SEQ ID NO: 2 (protein, Pseudomonas) MQTLSIQHGTLVTMDQYRRVLGDSWVHVQDGRIVALGVHAESVPPPADRVIDARGKVVLPGFINAHTHVNQILLRGGPSHGRQLYDWLFNVAFPGQKAMRPEDVAVAVRLYCAEAVRSGITTINDNADSAIYPGNIEAAMAVYGEVGVRVVYARMFFDRMDGRIQGYVDALKARSPQVELCSIMEETAVAKDRITALSDQYHGTAGGRISVWPAPAITPAVTVEGMRWAQAFARDRAVMWTLHMAESDHDERLHWMSPAEYMECYGLLDERLQVAHCVYFDRKDVRLLHRHNVKVASQVVSNAYLGSGVAPVPEMVERGMAVGIGTDDGNCNDSVNMIGDMKFMAHIHRAVHRDADVLTPEKILEMATIDGARSLGMDHEIGSIETGKRADLILLDLRHPQTTPHHHLAATIVFQAYGNEVDTVLIDGNVVMENRRLSFLPPERELAFLEEAQSRATAILQRANMVANPAWRSL | 100% | 100% |
| L92AF89A: mutated TriA variant of SEQ ID NO: 2 (protein, Pseudomonas) MQTLSIQHGTLVTMDQYRRVLGDSWVHVQDGRIVALGVHAESVPPPADRVIDARGKVVLPGFINAHTHVNQILLRGGPSHGRQLYDWLANVAYPGQKAMRPEDVAVAVRLYCAEAVRSGITTINDNADSAIYPGNIEAAMAVYGEVGVRVVYARMFFDRMDGRIQGYVDALKARSPQVELCSIMEETAVAKDRITALSDQYHGTAGGRISVWPAPAITPAVTVEGMRWAQAFARDRAVMWTLHMAESDHDERLHWMSPAEYMECYGLLDERLQVAHCVYFDRKDVRLLHRHNVKVASQVVSNAYLGSGVAPVPEMVERGMAVGIGTDDGNCNDSVNMIGDMKFMAHIHRAVHRDADVLTPEKILEMATIDGARSLGMDHEIGSIETGKRADLILLDLRHPQTTPHHHLAATIVFQAYGNEVDTVLIDGNVVMENRRLSFLPPERELAFLEEAQSRATAILQRANMVANPAWRSL | 100% | 100% |
| L92AY93A: mutated TriA variant of SEQ ID NO: 2 (protein, Pseudomonas) MQTLSIQHGTLVTMDQYRRVLGDSWVHVQDGRIVALGVHAESVPPPADRVIDARGKVVLPGFINAHTHVNQILLRGGPSHGRQLYDWLFNVAAPGQKAMRPEDVAVAVRLYCAEAVRSGITTINDNADSAIYPGNIEAAMAVYGEVGVRVVYARMFFDRMDGRIQGYVDALKARSPQVELCSIMEETAVAKDRITALSDQYHGTAGGRISVWPAPAITPAVTVEGMRWAQAFARDRAVMWTLHMAESDHDERLHWMSPAEYMECYGLLDERLQVAHCVYFDRKDVRLLHRHNVKVASQVVSNAYLGSGVAPVPEMVERGMAVGIGTDDGNCNDSVNMIGDMKFMAHIHRAVHRDADVLTPEKILEMATIDGARSLGMDHEIGSIETGKRADLILLDLRHPQTTPHHHLAATIVFQAYGNEVDTVLIDGNVVMENRRLSFLPPERELAFLEEAQSRATAILQRANMVANPAWRSL | 56% | 1% |
| L92AY93L: mutated TriA variant of SEQ ID NO: 2 (protein, Pseudomonas) MQTLSIQHGTLVTMDQYRRVLGDSWVHVQDGRIVALGVHAESVPPPADRVIDARGKVVLPGFINAHTHVNQILLRGGPSHGRQLYDWLFNVALPGQKAMRPEDVAVAVRLYCAEAVRSGITTINDNADSAIYPGNIEAAMAVYGEVGVRVVYARMFFDRMDGRIQGYVDALKARSPQVELCSIMEETAVAKDRITALSDQYHGTAGGRISVWPAPAITPAVTVEGMRWAQAFARDRAVMWTLHMAESDHDERLHWMSPAEYMECYGLLDERLQVAHCVYFDRKDVRLLHRHNVKVASQVVSNAYLGSGVAPVPEMVERGMAVGIGTDDGNCNDSVNMIGDMKFMAHIHRAVHRDADVLTPEKILEMATIDGARSLGMDHEIGSIETGKRADLILLDLRHPQTTPHHHLAATIVFQAYGNEVDTVLIDGNVVMENRRLSFLPPERELAFLEEAQSRATAILQRANMVANPAWRSL | 99% | 100% |
| F89A: mutated TriA variant of SEQ ID NO: 2 (protein, Pseudomonas) MQTLSIQHGTLVTMDQYRRVLGDSWVHVQDGRIVALGVHAESVPPPADRVIDARGKVVLPGFINAHTHVNQILLRGGPSHGRQLYDWLANVLYPGQKAMRPEDVAVAVRLYCAEAVRSGITTINDNADSAIYPGNIEAAMAVYGEVGVRVVYARMFFDRMDGRIQGYVDALKARSPQVELCSIMEETAVAKDRITALSDQYHGTAGGRISVWPAPAITPAVTVEGMRWAQAFARDRAVMWTLHMAESDHDERLHWMSPAEYMECYGLLDERLQVAHCVYFDRKDVRLLHRHNVKVASQVVSNAYLGSGVAPVPEMVERGMAVGIGTDDGNCNDSVNMIGDMKFMAHIHRAVHRDADVLTPEKILEMATIDGARSLGMDHEIGSIETGKRADLILLDLRHPQTTPHHHLAATIVFQAYGNEVDTVLIDGNVVMENRRLSFLPPERELAFLEEAQSRATAILQRANMVANPAWRSL | 26% | 100% |
| L92AF89AY93A: mutated TriA variant of SEQ ID NO: 2 (protein, Pseudomonas) MQTLSIQHGTLVTMDQYRRVLGDSWVHVQDGRIVALGVHAESVPPPADRVIDARGKVVLPGFINAHTHVNQILLRGGPSHGRQLYDWLANVAAPGQKAMRPEDVAVAVRLYCAEAVRSGITTINDNADSAIYPGNIEAAMAVYGEVGVRVVYARMFFDRMDGRIQGYVDALKARSPQVELCSIMEETAVAKDRITALSDQYHGTAGGRISVWPAPAITPAVTVEGMRWAQAFARDRAVMWTLHMAESDHDERLHWMSPAEYMECYGLLDERLQVAHCVYFDRKDVRLLHRHNVKVASQVVSNAYLGSGVAPVPEMVERGMAVGIGTDDGNCNDSVNMIGDMKFMAHIHRAVHRDADVLTPEKILEMATIDGARSLGMDHEIGSIETGKRADLILLDLRHPQTTPHHHLAATIVFQAYGNEVDTVLIDGNVVMENRRLSFLPPERELAFLEEAQSRATAILQRANMVANPAWRSL | 100% | 63% |
